Measurements: PMC2140037 (The Journal of Cell Biology, 2007)
One block for each molecule: values may come before it.

What was measured:
GST-Sed5H2 (yeast) = GST-Sed5H2 (yeast) (UniProt Q01590); assay: pull-down
GST-Sed5H1 (yeast) = GST-Sed5H1 (yeast) (UniProt Q01590); assay: pull-down
GST-Sed5H1 + 2 (yeast) = GST-Sed5H1 + 2 (yeast) (UniProt Q01590); assay: pull-down
[1] = molecular target: rat Cog3p (rat (endogenous in rat liver Golgi membranes)); assay: co-IP
[2] = molecular target: yeast COG complex (purified from TAP-yCog2 cells) (yeast, UniProt P53079;P53271;P40094;Q06096;P53951;P53959;P53195;Q04632); assay: pull-down

B2: Syntaxin5a (rat liver Golgi) (natural protein)
chain: MSCRDRTQEFLSACKSLQSRQNGIQTNKPALHATRQCSEFTLMARRIGKDLSNTFAKLEKLTILAKRKSLFDDKAVEIEELTYIIKQDINSLNKQIAQLQDFVRAKGSQSGRHLQTHSNTIVVSLQSKLASMSNDFKSVLEVRTENLKQQRNRREQFSRAPVSALPLAPNNLGGGPIVLGGESRASRDVAIDMMDPRTSQQLQLIDEQDSYIQSRADTMQNIESTIVELGSIFQQLAHMVKEQEETIQRIDENVLGAQLDVEAAHSEILKYFQSVTSNRWLMVKIFLILIVFFIIFVVFLA
percent coimmunoprecipitated [1]: < 4%

B3: GST-Sed5H3 (SNARE domain of Sed5p) (domain or fragment)
chain: FMTSLLDESSEKNNNSSNQGELSFPQNDSQLMLMEEGQLSNNVYLQERNRAVETIESTIQEVGNLFQQLASMVQEQGEVIQRIDANVDDIDLNISGAQRELLKYFDRIKSNRWLAAK
binding result [2]: binds

B4: GS28 (rat liver Golgi) (natural protein)
chain: MAAGTSNYWEDLRKQARQLENELDLKLVSFSKLCTSYSHSSARDGGRDRYSSDTTPLLNGSSQDRMFETMAIEIEQLLARLTGVNDKMAEYTHSAGVPSLNAALMHTLQRHRDILQDYTHEFHKTKANFMAIRERENLMGSVRKDIESYKSGSGVNNRRTELFLKEHDHLRNSDRLIEETISIAMATKENMTSQRGMLKSIHSKMNTLANRFPAVNSLIQRINLRKRRDSLILGGVIGICTILLLLYAFH
percent coimmunoprecipitated [1]: < 4%

B6: Golgi matrix protein GM130 (rat liver Golgi) (natural protein)
chain: MWPPRFPPPRPGMSEETRQSKLAAAKKKLREYQQKNSPGVPAGAKKKKKIKNGHSPERTSASDCQSAENVPTDHTAPAPPSTAAATMFLGVVPSPDADLIQSHDAGNCSNLMEETKTFSSTESLRQLSQQLNGLVSESTSYINGEGLTSSNMKELESRYQELAVALDSSYVTNKQLSSTIEELKQQNQDTLDQLEKEKKDYQQKLAKEQGALREQLQVHIQTIGILVSEKAELQTALAHTQQAARQKAGESEDLASRLQSSRQRVGELERTLSTVSTQQKQADRYNKDLTKERDALKLELYKNGKSNEDLRQQNSELEEKLRVLVAEKAAAQLGAEELQKKLEMSELLLQQFSSQSEASGSNEQLQQAMEERAQLESHVGQLMESLKQLQVERDQYAENLKGESAMWQQRVQQMAEQVHALKEEKEQRESQVQELEASLAELRSQMEEPPPPEPPTGPSEAEERLQGEVEQLQKELEGLTGQLRAQVQDNESLSHLNREQEGRLLELEREAQHWSEQAEERKQILESMQSDRTTISRALSQNRELKEQLAELQNGFVRLTNENMEITSALQSEQHVKKELARKLGELQERLGELKETVELKSQEAQGLQEQRDQCLSHLQQYAAAYQQHLTAYEQLTSEKEALHKQLLLQTQLMDQLQHEEVQGKMAAEMARQELQEAQERLKASSQENQQLQAQLSLLVLPGEDMDQEEQDEEVPQPSLTIPEDLVSREAMVAFCNAAIARAEEEQARLRVQLREQKARCRSLAHLAAPVQSKLEKEAVVPRDMGDSVSEESNQALHVAMEKLQNRFLEVMQEKVELKERVEELEHCCIQLSGETDTIGEYIALYQNQRAVLKARHLEKEEYISRLAQDKEEMKVKLLELQELVLRLVNERNEWQGKFLAVSQNPADVPAPVPTGSQEFGAADQQGDLREVSLADDTEPAQGEAGVPAPQENPTAQQIMQLLREIQNPQERPGLGSNPCIPFFYRADENDEVKIMVI
percent coimmunoprecipitated [1]: 10%

Other lines, results leading:

fold less efficient binding than to the cytosolic portion of Sed5p and Sed5H3 (GST-Sed5H2 (yeast)): 4 fold | fold less efficient binding than to the cytosolic portion of Sed5p and Sed5H3 (GST-Sed5H1 (yeast)): 4 fold | fold less efficient binding than to the cytosolic portion of Sed5p and Sed5H3 (GST-Sed5H1 + 2 (yeast)): 4 fold
Molecule: yeast COG complex (purified from TAP-yCog2 cells), P53079;P53271;P40094;Q06096;P53951;P53959;P53195;Q04632

percent coimmunoprecipitated [1]: 4%
B1: vesicle-tethering factor p115 (rat liver Golgi) (natural protein)
chain: MNFLRGVMGGQSAGPQHTEAETIQKLCDRVASSTLLDDRRNAVRALKSLSKKYRLEVGIQAMEHLIHVLQTDRSDSEIIAYALDTLYNIISNDEEEEVEENSTRQSEDLGSQFTEIFIKQPENVTLLLSLLEEFDFHVRWPGVRLLTSLLKQLGPPVQQIILVSPMGVSKLMDLLADSREIIRNDGVLLLQALTRSNGAIQKIVAFENAFERLLDIITEEGNSDGGIVVEDCLILLQNLLKNNNSNQNFFKEGSYIQRMKAWFEVGDENPGWSAQKVTNLHLMLQLVRVLVSPTNPPGATSSCQKAMFQCGLLQQLCTILMATGIPADILTETINTVSEVIRGCQVNQDYFASVNAPSNPPRPAIVVLLMSMVNERQPFVLRCAVLYCFQCFLYKNEKGQGEIVATLLPSTIDATGNSVSAGQLLCGGLFSTDSLSNWCAAVALAHALQGNATQKEQLLRVQLATSIGNPPVSLLQQCTNILSQGSKIQTRVGLLMLLCTWLSNCPIAVTHFLHNSANVPFLTGQIAENLGEEEQLVQGLCALLLGISIYFNDNSLENYTKEKLKQLIEKRIGKENYIEKLGFISKHELYSRASQKPQPNFPSPEYMIFDHEFTKLVKELEGVITKAIYKSSEEDKKEEEVKKTLEQHDNIVTHYKNMIREQDLQLEELKQQVSTLKCQNEQLQTAVTQQASQIQQHKDQYNLLKVQLGKDNHHQGSHSDGAQVNGIQPEEISRLREEIEELRSHQVLLQSQLAEKDTVIENLRSSQVSGMSEQALATCSPRDAEQVAELKQELSALKSQLCSQSLEITRLQTENSELQQRAETLAKSVPVEGESELVTAAKTTDVEGRLSALLQETKELKNEIKALSEERTAIQKQLDSSNSTIAILQTEKDKLYLEVTDSKKEQDDLLVLLADQDQKILSLKSKLKDLGHPVEEEDESGDQEDDDDELDDGDRDQDI

binding result [2]: binds
B5: GST-Sed5p, cytosolic portion (domain or fragment)
chain: MNIKDRTSEFQQSVLSYKKRNKNFREQQRERLQEKESENFANNTTGNGKSVSEFQKKASGIAHEISSTAQLLSKLAVLAKRKPMFNDNPVEIAELSFLIKRKIYAIEQSLVQLSQLKKTDVNGNTSNQSSKQPSAVQHSKNVVNLLNTQMKNISGSFKDVLEERQRLEMANKDRWQKLTTDTGHAPADDQTQSNHAADLTTYNNSNPFMTSLLDESSEKNNNSSNQGELSFPQNDSQLMLMEEGQLSNNVYLQERNRAVETIESTIQEVGNLFQQLASMVQEQGEVIQRIDANVDDIDLNISGAQRELLKYFDRIKSNR
